T1: Activin A (Homo sapiens (Human), UniProt P08476 311-426)
T1 sequence: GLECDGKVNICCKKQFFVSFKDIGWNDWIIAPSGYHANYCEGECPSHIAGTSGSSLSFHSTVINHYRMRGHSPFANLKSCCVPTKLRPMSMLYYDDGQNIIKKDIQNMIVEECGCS

B1: ActRIIB-IgG1 Fc wild type, no linker (Fc fusion)
chain: SGRGEAETRECIYYNANWELERTNQSGLERCEGEQDKRLHCYASWRNSSGTIELVKKGCWLDDFNCYDRQECVATEENPQVYFCCCEGNFCNERFTHLPEAGGPEVTYEPPPTAPTAPELLGGPSVFLFPPKPKDILMISRTPEVTCVVVDVSHEDPEVKFNWYVGGVEVHNAKTKPREEQYNSTYRVVSVLTVLHQDWLNGKEYKCKVSNKALPAPIEKTISKAKGQPREPQVYTLPPSRDELTKNQVSLTCLVKGFYPSDIAVEWESNGQPENNYKTTPPVLDSDGSFFLYSKLTVDKSRWQQGNVFSCSVMHEALHNHYTQKSLSLSPGK
notes: Tested from conditioned media
B2: ActRIIB-IgG1 Fc R40A, no linker (Fc fusion)
chain: SGRGEAETRECIYYNANWELEATNQSGLERCEGEQDKRLHCYASWRNSSGTIELVKKGCWLDDFNCYDRQECVATEENPQVYFCCCEGNFCNERFTHLPEAGGPEVTYEPPPTAPTAPELLGGPSVFLFPPKPKDILMISRTPEVTCVVVDVSHEDPEVKFNWYVGGVEVHNAKTKPREEQYNSTYRVVSVLTVLHQDWLNGKEYKCKVSNKALPAPIEKTISKAKGQPREPQVYTLPPSRDELTKNQVSLTCLVKGFYPSDIAVEWESNGQPENNYKTTPPVLDSDGSFFLYSKLTVDKSRWQQGNVFSCSVMHEALHNHYTQKSLSLSPGK
notes: Tested from conditioned media
B3: ActRIIB-IgG1 Fc E28A, no linker (Fc fusion)
chain: SGRGEAETRACIYYNANWELERTNQSGLERCEGEQDKRLHCYASWRNSSGTIELVKKGCWLDDFNCYDRQECVATEENPQVYFCCCEGNFCNERFTHLPEAGGPEVTYEPPPTAPTAPELLGGPSVFLFPPKPKDILMISRTPEVTCVVVDVSHEDPEVKFNWYVGGVEVHNAKTKPREEQYNSTYRVVSVLTVLHQDWLNGKEYKCKVSNKALPAPIEKTISKAKGQPREPQVYTLPPSRDELTKNQVSLTCLVKGFYPSDIAVEWESNGQPENNYKTTPPVLDSDGSFFLYSKLTVDKSRWQQGNVFSCSVMHEALHNHYTQKSLSLSPGK
notes: Tested from conditioned media

Each binder was assayed against T1, Activin A (assay: Biacore SPR grade, COS stable conditioned media, 20 nM activin A).
Experimental: Qualitative BIAcore® Assay. E28 and R40 were substituted respectively with other natural amino acids in fusions with IgG1 Fc as described above. Each vActRIIB-IgG1Fc sample from conditioned media was captured on goat anti-human IgG1 Fc antibody (Jackson Immuno Research, cat#109-005-098, lot 63550) coated CMS surface. 20 nM of Activin A was injected over captured sample surfaces using BIACore2000 (BIACore Life Sciences, Piscataway, N.J.). The resulting sensorgrams were normalized to the captured RL (500 RU) of vActRIIB-IgG1Fc variants. The normalized binding response (RU) for some variants are shown in Table 2, and is further described below. Relative binding affinity for activin was also determined by Biacore measurements using conditioned media obtained from mammalian cell expression. Activin A (20 nM) was used to capture soluble receptor polypeptide in the conditioned media and measured SPR signals were normalized. Normalized SPR of +++++: >60, ++++:40-60, +++:20-40, ++:10-20, +: 5-10, −: <5.

| Binder | Normalized SPR [ru] |
| --- | --- |
| B1 | 10 to 20 |
| B2 | 10 to 20 |
| B3 | 10 to 20 |

Reference: US20130288983A1 (Amgen, published 2013)
